In paper PMC3510498, “RecOR complex including RecR N-N dimer and RecO monomer displays a high affinity for ssDNA”:

How the values were obtained:
TTERecO = TTERecO (Thermoanaerobacter tengcongensis MB4, UniProt Q8RB48 1-247); assay: EMSA; 10 uM protein, 2 uM DNA; SPR: 20 mM HEPES pH 7.4, 200 mM NaCl, 0.005% Tween 20, 25 C, SA chip; EMSA: 20 mM HEPES pH 7.4, 200 mM NaCl, 25 C, 30 min, 2 uM DNA; settings: protein: recombinant; tags: N-terminal His6; label: 5' biotin (SPR)
TTERecR R25G;TTERecO = TTERecR R25G;TTERecO (Thermoanaerobacter tengcongensis …, UniProt Q8RDI4;Q8RB48 1-199;1-247, R28G|); assay: SPR; as strong as RecOR; SPR: 20 mM HEPES pH 7.4, 200 mM NaCl, 0.005% Tween 20, 25 C, SA chip; EMSA: 20 mM HEPES pH 7.4, 200 mM NaCl, 25 C, 30 min, 2 uM DNA
TTERecR P16G;TTERecO = TTERecR P16G;TTERecO (Thermoanaerobacter tengcongensis …, UniProt Q8RDI4;Q8RB48 1-199;1-247, P19G|); assay: as above
TTERecR;TTERecO = TTERecR;TTERecO (Thermoanaerobacter tengcongensis …, UniProt Q8RDI4;Q8RB48 1-199;1-247, |); assay: SPR; SPR: 20 mM HEPES pH 7.4, 200 mM NaCl, 0.005% Tween 20, 25 C, SA chip; EMSA: 20 mM HEPES pH 7.4, 200 mM NaCl, 25 C, 30 min, 2 uM DNA
TTERecR = TTERecR (Thermoanaerobacter tengcongensis MB4, UniProt Q8RDI4 1-199); assay: as above
TTERecR R25G = TTERecR R25G (Thermoanaerobacter tengcongensis MB4, UniProt Q8RDI4 1-199, R28G); assay: as above
TTERecR P16G = TTERecR P16G (Thermoanaerobacter tengcongensis MB4, UniProt Q8RDI4 1-199, P19G); assay: as above

B1: 60 mer ssDNA (ssDNA)
DNA: ATAAATATCGATGTTAAAGAGGATAAGATTTATAAAATAGCTTCTTATTTTCCTGTAGTA
Question: Does B1 bind (TTERecO)?
Answer: no binding

Question: Does B1 bind (TTERecR R25G;TTERecO)?
Answer: binds

Question: Does B1 bind (TTERecR P16G;TTERecO)?
Answer: binds

Question: And the Kd (TTERecR;TTERecO)?
Answer: 0.000931 µM

Question: Does B1 bind (TTERecR)?
Answer: no binding

B2: 60 mer dsDNA (dsDNA)
DNA 1: ATAAATATCGATGTTAAAGAGGATAAGATTTATAAAATAGCTTCTTATTTTCCTGTAGTA
DNA 2: TACTACAGGAAAATAAGAAGCTATTTTATAAATCTTATCCTCTTTAACATCGATATTTAT
Question: Does B2 bind (TTERecR R25G;TTERecO)?
Answer: binds

Question: Does B2 bind (TTERecR P16G;TTERecO)?
Answer: binds

Question: Does B2 bind (TTERecR R25G)?
Answer: no binding

Question: And the Kd (TTERecR;TTERecO)?
Answer: 0.0264 µM

Question: And the Kd (TTERecR)?
Answer: 24.8 µM

Question: Does B2 bind (TTERecR P16G)?
Answer: no binding
